Test results reported in paper doi:10.1101/2024.03.07.581839 (bioRxiv, 2024).

Biological target: the molecule itself
Test: cryo-EM structure

B1: human GPR156 (receptor)
chain: MEPEINCSELCDSFPGQELDRRPLHDLCKTTITSSHHSSKTISSLSPVLLGIVWTFLSCGLLLILFFLAFTIHCRKNRIVKMSSPNLNIVTLLGSCLTYSSAYLFGIQDVLVGSSMETLIQTRLSMLCIGTSLVFGPILGKSWRLYKVFTQRVPDKRVIIKDLQLLGLVAALLMADVILLMTWVLTDPIQCLQILSVSMTVTGKDVSCTSTSTHFCASRYSDVWIALIWGCKGLLLLYGAYLAGLTGHVSSPPVNQSLTIMVGVNLLVLAAGLLFVVTRYLHSWPNLVFGLTSGGIFVCTTTINCFIFIPQLKQWKAFEEENQTIRRMAKYFSTPNKSFHTQYGEEENCHPRGEKSSMERLLTEKNAVIESLQEQVNNAKEKIVRLMSAECTYDLPEGAAPPASSPNKDVQAVASVHTLAAAQGPSGHLSDFQNDPGMAARDSQCTSGPSSYAQSLEGPGKDSSFSPGKEEKISDSKDFSDHLDSGCSQKPWTEQSLGPERGDQVPMNPSQSLLPERGGSDPQRQRHLENSEEPPERRSRVSSVIREKLQEVLQDLGLGPEASLSTAPSCHQQTWKNSAAFSPQKMPLSKELGFSPYMVRRRRAAQRARSHFPGSAPSSVGHRANRTVPGAHSRLHVQNGDSPSLAPQTTDSRVRRPSSRKPSLPSDPQDRPGTLEGSKQSQTEPEGARGSKAAFLRQPSGSGRAPSPAAPCLSKASPDLPEQWQLWPPVPSGCASLSSQHSYFDTESSSSDEFFCRCHRPYCEICFQSSSDSSDSGTSDTDPEPTGGLASWEKLWARSKPIVNFKDDLKPTLV
B1 was tested. Which “stoichiometry N” value did it give?
The value was 2.
